In test [1] the target is T1, mouse CD137 protein (Biacore) (mouse, UniProt P20334 24-178, limits assumed).
T1 construct: Construct used as SPR analyte not described
T1 sequence: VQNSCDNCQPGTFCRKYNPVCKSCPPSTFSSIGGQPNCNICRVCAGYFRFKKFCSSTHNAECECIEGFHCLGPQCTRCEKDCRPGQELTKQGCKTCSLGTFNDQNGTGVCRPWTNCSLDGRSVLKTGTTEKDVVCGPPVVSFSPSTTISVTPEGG
The test is described as follows: SPR Biacore.

Test [2] has as its target T2, CD95.
T2 chain: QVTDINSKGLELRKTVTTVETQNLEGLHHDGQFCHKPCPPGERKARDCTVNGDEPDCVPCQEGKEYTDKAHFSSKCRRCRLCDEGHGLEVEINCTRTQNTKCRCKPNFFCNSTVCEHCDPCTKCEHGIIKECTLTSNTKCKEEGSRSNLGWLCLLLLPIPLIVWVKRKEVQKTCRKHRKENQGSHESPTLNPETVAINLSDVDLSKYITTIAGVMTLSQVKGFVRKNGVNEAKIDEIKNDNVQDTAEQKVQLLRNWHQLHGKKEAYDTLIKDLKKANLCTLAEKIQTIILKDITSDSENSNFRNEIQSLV
Description: flow cytometry, HEK293F cells expressing the receptor [Cont.]. A general note: Flow cytometry measures light scatter and fluorescence of single cells or particles in a stream.

The target in test [3] is T3, CD120a.
T3 chain: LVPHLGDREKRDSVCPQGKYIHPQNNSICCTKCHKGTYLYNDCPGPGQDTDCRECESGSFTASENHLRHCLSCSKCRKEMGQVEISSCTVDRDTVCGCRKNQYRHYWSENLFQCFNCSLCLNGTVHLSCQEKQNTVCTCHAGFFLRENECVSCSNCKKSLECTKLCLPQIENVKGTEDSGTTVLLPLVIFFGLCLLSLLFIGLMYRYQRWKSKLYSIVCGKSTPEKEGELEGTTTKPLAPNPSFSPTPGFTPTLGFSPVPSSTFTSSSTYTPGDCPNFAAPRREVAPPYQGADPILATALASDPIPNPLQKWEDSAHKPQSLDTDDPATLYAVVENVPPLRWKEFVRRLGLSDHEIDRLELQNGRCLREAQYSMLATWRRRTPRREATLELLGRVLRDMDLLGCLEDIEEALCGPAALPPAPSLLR
The description is as above.

In test [4] the target is T4, human CD137-His6 (Sino Biological #10041-H08H) (human, UniProt Q07011 24-186).
T4 construct: Bought; also called human CD137 protein; not shown: His6 tag
The test is described as follows: SPR Biacore, IgG captured. (SPR reads the build-up and loss of mass on a sensor chip optically.)

Test [5] concerns the target T1, mouse CD137 protein (Biacore). The test is described as follows: SPR Biacore, IgG captured.

Changes are numbered by the printed parent chain.

B1: AG10059 (antibody, human IgG4 S228P, kappa, V domains shown)
VH: EVQLVESGGGLVQPGGSLRLSCAASGYSITSGHYWAWIRQAPGKGLEWVSSISGYGSTTYYADSVKGRFTISRDNSKNTLYLQLNSLRAEDTAVYYCARGGSDAVLGDWFAYWGQGTLVTVSS
VL: DIQLTQSPSSLSASVGDRVTITCRASQGIGSFLAWYQQKPGKAPKLLIYDASNLETGVPSRFSGSGSGTDFTLTISSLQPEDFATYYCQQGYYLWTFGQGTKVEIKR
For B1, the binding result in test [1] was “no binding”; in test [2], “no binding (tested: 100 nM (text paragraph 226))”; in test [3], “no binding (tested: 100 nM (text paragraph 226))”.

B2: AG10058 (antibody, human IgG4 S228P, kappa, V domains shown)
VH: EVQLVESGGGLVQPGGSLRLSCAASGFSLSTSGVGVGWIRQAPGKGLEWLALIDWDDDKYYSPSLKSRLTISRDNSKNTLYLQLNSLRAEDTAVYYCARGGSDTVLGDWFAYWGQGTLVTVSS
VL: B1 VL with G28S, I29V, G30S, S31P, F32Y, N53S, T56S, Y93S
As to B2, the Kd in test [4] was found to be 5.9 nM; in test [5], 15.2 nM.

A word on the Kd: it is a measure of binding affinity in units of concentration. Low readings indicate tighter binding, high ones weaker binding.

Values taken from patent publication US20190055314A1 (ADAGENE, published 2019).
